From patent publication US20150299285A1
Bridges are numbered along the chain shown (N, C = ends). Primed or numbered codes have the meaning given here. Where no end group is shown, it is not given here. [ ]: non-standard residue; d: D form. PEG4′ = non-peptide PEG4 spacer in the linking moiety; PEG8″ = non-peptide PEG8 spacer in the linking moiety

B1: DP19LysC (ligand)
chain: GPEHLCGAHLVDALYLVCGDRGFYGYGSSSRRAPQTGIVDECCHRSCDLRRLENYCN
B2: MIU-68: B0, B22-PEG10K di-PEGylated B^1(H5,Y16,L17, K22)25-C^1(K8)-A^1(N18,21) (ligand)
chain: {PEG 10 kDa}-GPEHLCGAELVDALYLVCGDK(PEG 10 kDa)GFYGYGSSSRKAPQTGIVDECCFRSCDLRRLENYCN
modifications: disulfide 18-56, 42-47, 6-43
B3: MIU-67: B0, C8-PEG10K di-PEGylated B^1(H5,Y16,L17)25-C^1(K8)-A^1(N18,21) (ligand)
chain: {PEG 10 kDa}-GPEHLCGAELVDALYLVCGDRGFYGYGSSSRK(PEG 10 kDa)APQTGIVDECCFRSCDLRRLENYCN
modifications: disulfide 18-56, 42-47, 6-43
B4: MIU-57: B1-PEG20K B^1(H5,Y16,L17)25-C^1-A^1(N18,21), P05019 49-110 (ligand)
chain: {PEG 20 kDa}-GPEHLCGAELVDALYLVCGDRGFYGYGSSSRRAPQTGIVDECCFRSCDLRRLENYCN
modifications: disulfide 18-56, 42-47, 6-43
B5: MIU-58: B1-PEG20K-B1- Dimer, P05019 49-110 (ligand)
chain: {PEG 20 kDa}-GPEHLCGAELVDALYLVCGDRGFYGYGSSSRRAPQTGIVDECCFRSCDLRRLENYCN
modifications: disulfide 18-56, 42-47, 6-43; also: dimer: two chains linked head to head via 20 kDa PEG
B6: MIU-69: B0, A14-PEG10K di-PEGylated B^1(H5,Y16,L17)25-C^1(K8)-A^1(K14, N18,21) (ligand)
chain: {PEG 10 kDa}-GPEHLCGAELVDALYLVCGDRGFYGYGSSSRKAPQTGIVDECCFRSCDLK(PEG 10 kDa)RLENYCN
modifications: disulfide 18-56, 42-47, 6-43
B7: MIU-35: B^1(H5, H10, Y16, L17)25-C^1-A^1 (H8, N18, N21) (ligand)
chain: B1 chain

Biological target: insulin receptor subtype B (human) (UniProt P06213)
Assay: cell-based or functional assay

EC50, Receptor Phosphorylation	Binder
1.2 nM	B1

Biological target: insulin receptor subtype A (human) (UniProt P06213)
Assay: cell-based or functional assay

EC50, Receptor Phosphorylation	Binder
0.3 nM	B1

Biological target: human IGF-1 receptor (human) (UniProt P08069)
Assay: cell-based or functional assay

EC50, Receptor Phosphorylation	Binder
20.7 nM	B1

Biological target: insulin receptor subtype A (human), P06213
Assay: cell-based or functional assay

% Insulin Activity (in vitro; assay not stated)	Binder
0.4%	B2
0.2%	B3
14.8%	GPEHLCGAELVDALYLVCGDRGFY[PEG8″]K(PEG 20 kDa)[PEG4′]GIVDECCFRSCDLRRLENYCN (ligand, disulfide 18-47, 33-38, 6-34) [MIU-56: C8-PEG20K B^1(H5, Y16, L17)25-PEG8-K-PEG4-A^1(N18, N21)]
3.1%	B4
19.7%	B5
1%	B6
61.4%	B7

Biological target: insulin receptor subtype B (human), P06213
Assay: cell-based or functional assay

% Insulin Activity (in vitro; assay not stated)	Binder
0.1%	B2
0.1%	B3
1.1%	B4
5.8%	B5
0.5%	B6
17.4%	B7
